Read-outs that look alike come from different tables or passages of the source.
B1: Nanobody 216_A01 (SEQ ID NO: 6) (VHH)
VHH: EVQLQASGGGFVQPGGSLRLSCAASGRYSRIEIMGWFRQAPGKEREFVSAISSTPSSNEYYADSVKGRFTISRDNSKNTVYLQMNSLRAEDTATYYCARWDWHSWDTYWGQGTQVTVSS
notes: Humanized synthetic single domain antibody, his-tagged, made in E. coli; 175 aa with the tag; also called NB #2
B2: Nanobody 218_A01 (VHH)
VHH: EVQLQASGGGFVQPGGSLRLSCAASGAGSRSDVMGWFRQAPGKEREFVSAISGFWGWTTYYADSVKGRFTISRDNSKNTVYLQMNSLRAEDTATYYCALGGAPGQTGYWGQGTQVTVSS
notes: 175 aa with the tag, so CDR3 has 9 residues, which fits CDR set (a), (e) or (h)
B3: Nanobody 216_D11 (VHH)
VHH: EVQLQASGGGFVQPGGSLRLSCAASGDTSESTSMGWFRQAPGKEREFVSAISRSSTWDAYYADSVKGRFTISRDNSKNTVYLQMNSLRAEDTATYYCAMADIFDHPQNASFMKYWGQGTQVTVSS
notes: 181 aa with the tag, so CDR3 has 15 residues, which fits CDR set (c) or (l)
B4: Nanobody 218_D11 (VHH)
VHH: EVQLQASGGGFVQPGGSLRLSCAASGDTSRFDVMGWFRQAPGKEREFVSAISWWSSDHIYYADSVKGRFTISRDNSKNTVYLQMNSLRAEDTATYYCAYGEYPPRMNRRPYWGQGTQVTVSS
notes: 178 aa with the tag, so CDR3 has 12 residues, which fits CDR set (b) or (d)
B5: Nanobody 214_H05 (VHH)
VHH: EVQLQASGGGFVQPGGSLRLSCAASGTTSNSSGMGWFRQAPGKEREFVSAISWDHGILTYYADSVKGRFTISRDNSKNTVYLQMNSLRAEDTATYYCAHGYVHFNMTHRHISDYWGQGTQVTVSS
notes: Humanized synthetic single domain antibody (hs2dAb library, Hybrigenics); 181 aa with the tag, so CDR3 has 15 residues, which fits CDR set (c), (k) or (l)
B6: Nanobody 218_F09 (VHH)
VHH: EVQLQASGGGFVQPGGSLRLSCAASGTTSNGEVMGWFRQAPGKEREFVSAISFGAGSSEYYADSVKGRFTISRDNSKNTVYLQMNSLRAEDTATYYCAASWYHSSIGSMSYWGQGTQVTVSS
notes: as for B4
B7: Nanobody 219_F09 (VHH)
VHH: EVQLQASGGGFVQPGGSLRLSCAASGAYSFESGMGWFRQAPGKEREFVSAISSDADLFSYYADSVKGRFTISRDNSKNTVYLQMNSLRAEDTATYYCAAFSSGGELSYWGQGTQVTVSS
notes: as for B2
B8: Nanobody 219_F02 (VHH)
VHH: EVQLQASGGGFVQPGGSLRLSCAASGSTSYSSTMGWFRQAPGKEREFVSAISFDGTSKPYYADSVKGRFTISRDNSKNTVYLQMNSLRAEDTATYYCAAGEWEALMWPPVHDFWIYYWGQGTQVTVSS
notes: 184 aa with the tag, so CDR3 has 18 residues, which fits CDR set (g) or (i)
B9: Nanobody 218_B04 (VHH)
VHH: EVQLQASGGGFVQPGGSLRLSCAASGRTSSQDIMGWFRQAPGKEREFVSAISDYSGGNVYYADSVKGRFTISRDNSKNTVYLQMNSLRAEDTATYYCAFLGEEKTSWYWGQGTQVTVSS
notes: as for B2
B10: Nanobody 219_H09 (VHH)
VHH: EVQLQASGGGFVQPGGSLRLSCAASGSTSYGETMGWFRQAPGKEREFVSAISYYSTRKPYYADSVKGRFTISRDNSKNTVYLQMNSLRAEDTATYYCAIVAYIYADGVRGYHQKIDYWGQGTQVTVSS
notes: as for B8
B11: Nanobody 219_A01 (VHH)
VHH: EVQLQASGGGFVQPGGSLRLSCAASGGGYDWDAMGWFRQAPGKEREFVSAISSNNNGSRYYADSVKGRFTISRDNSKNTVYLQMNSLRAEDTATYYCAADQYWGQGTQVTVSS
notes: 169 aa with the tag, so CDR3 has 3 residues
B12: Nanobody 217_C02 (SEQ ID NO: 52) (VHH)
VHH: EVQLQASGGGFVQPGGSLRLSCAASGTYSSIEVMGWFRQAPGKEREFVSAISFEPNEFAYYADSVKGRFTISRDNSKNTVYLQMNSLRAEDTATYYCASSVEWRQNGKPNTASYWGQGTQVTVSS
notes: Humanized synthetic single domain antibody, his-tagged, made in E. coli; 181 aa with the tag; also called NB #12

What was measured:
[1] = target: T1, recombinant human galectin-7 (human, UniProt P47929 1-136); assay: SPR (BIACore), human GAL-7 on the sensor surface, Nb as analyte
T1 construct: Prototypic galectin with one CRD; also called hGAL-7; human GAL-7
Protocol: SPR analysis. Binding affinities of his-tagged GAL-7-specific Nbs was measured by surface plasmon resonance (SPR) using a BIACore® system. Briefly, a buffer flow was run across the sensor surface, which has previously been coated with human GAL-7, then the Nbs were introduced into the device and allowed to bind to the immobilized antigen. The stability of the binding between GAL-7 and the Nbs was measured and used to calculate the dissociation constant (Kd) of the Nbs for human GAL-7.

[2] = target: T1, recombinant human galectin-7; assay: cell-based or functional assay
[3] = target: T1, recombinant human galectin-7; assay: cell-based or functional assay; remark: listed apart in the source
[4] = target: T1, recombinant human galectin-7; assay: ELISA of the selected nanobody clone on hGAL-7 with His-tagged MBP as control; y axis 'ELISA Ratio'; no concentration given
[5] = target: T1, recombinant human galectin-7; assay: phage selection and ELISA (FIG. 3A)

T1 sequence (P47929 whole entry): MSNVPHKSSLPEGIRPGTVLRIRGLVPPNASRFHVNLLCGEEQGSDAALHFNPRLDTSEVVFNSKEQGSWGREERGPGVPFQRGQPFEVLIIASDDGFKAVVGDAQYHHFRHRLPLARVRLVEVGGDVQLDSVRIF

| Binder | binding result [4] | other results |
| --- | --- | --- |
| B1 |  | Kd [1]: 0.123 µM; koff [1]: 0.00348 s⁻¹; kon [1]: 28400 M⁻¹ s⁻¹; IC50 (read off the curve): inhibition of hGAL-7-induced apoptosis of Jurkat T cells (Annexin V, flow cytometry) [2]: ~3 µM; IC50 (read off the curve): inhibition of hGAL-7-induced apoptosis of Jurkat T cells (Annexin V, flow cytometry) [3]: ~2 µM |
| B2 | binds |  |
| B3 | binds |  |
| B4 | binds |  |
| B5 | binds |  |
| B6 | binds |  |
| B7 | binds |  |
| B8 | binds |  |
| B9 | binds |  |
| B10 | binds |  |
| B11 |  | binding result [5]: binds |
| B12 |  | Kd [1]: 1.5 µM; koff [1]: 0.00165 s⁻¹; kon [1]: 1100 M⁻¹ s⁻¹ |

From patent publication US20220089746A1 (INSTITUT NATIONAL DE LA RECHERCHE SCIENTIFIQUE, published 2022)
